Columns and labels:
Experiment in all cases: colorimetric sulfide formation, Michaelis-Menten fit
[1] = substrate: N[C@@H](CS)C(=O)O; type: biochemical, Colias croceus; conditions: 6 mM KCN, 20 µM pyridoxal-5'-phosphate, Tris-HCl pH 8.5, 31 °C, 10 min
Text: colorimetric sulfide formation, Michaelis-Menten fit on CcBSAS2

[2] = substrate: N[C@@H](CS)C(=O)O; type: biochemical, Anthocharis cardamines; conditions: 6 mM KCN, 20 µM pyridoxal-5'-phosphate, Tris-HCl pH 8.5, 31 °C, 10 min
Text: colorimetric sulfide formation, Michaelis-Menten fit on AcaBSAS2

[3] = substrate: N[C@@H](CS)C(=O)O; type: biochemical, Gonepteryx rhamni; conditions: 6 mM KCN, 20 µM pyridoxal-5'-phosphate, Tris-HCl pH 8.5, 31 °C, 30 min
Text: colorimetric sulfide formation, Michaelis-Menten fit on GrBSAS2

[4] = substrate: N[C@@H](CS)C(=O)O; type: biochemical, Plutella xylostella; conditions: 6 mM KCN, 20 µM pyridoxal-5'-phosphate, Tris-HCl pH 8.5, 31 °C, 10 min
Text: colorimetric sulfide formation, Michaelis-Menten fit on PxBSAS2

[5] = substrate: N[C@@H](CS)C(=O)O; type: biochemical, Colias croceus; conditions: 6 mM KCN, 20 µM pyridoxal-5'-phosphate, Tris-HCl pH 8.5, 31 °C, 10 min; remark: listed apart in the source
Text: colorimetric sulfide formation, Michaelis-Menten fit on CcBSAS3

[6] = substrate: N[C@@H](CS)C(=O)O; type: biochemical, Aporia crataegi; conditions: 6 mM KCN, 20 µM pyridoxal-5'-phosphate, Tris-HCl pH 8.5, 31 °C, 10 min
Text: colorimetric sulfide formation, Michaelis-Menten fit on AcrBSAS1

[7] = substrate: N[C@@H](CS)C(=O)O; type: biochemical, Aporia crataegi; conditions: 6 mM KCN, 20 µM pyridoxal-5'-phosphate, Tris-HCl pH 8.5, 31 °C, 10 min; remark: listed apart in the source
Text: colorimetric sulfide formation, Michaelis-Menten fit on AcrBSAS2

[8] = substrate: N[C@@H](CS)C(=O)O; type: biochemical, Anthocharis cardamines; conditions: 6 mM KCN, 20 µM pyridoxal-5'-phosphate, Tris-HCl pH 8.5, 31 °C, 10 min; remark: listed apart in the source
Text: colorimetric sulfide formation, Michaelis-Menten fit on AcaBSAS1

[9] = substrate: N[C@@H](CS)C(=O)O; type: biochemical, Zygaena filipendulae; conditions: 6 mM KCN, 20 µM pyridoxal-5'-phosphate, Tris-HCl pH 8.5, 31 °C, 10 min
Text: colorimetric sulfide formation, Michaelis-Menten fit on ZfBSAS2

[10] = substrate: N[C@@H](CS)C(=O)O; type: biochemical, Spodoptera littoralis; conditions: 6 mM KCN, 20 µM pyridoxal-5'-phosphate, Tris-HCl pH 8.5, 31 °C, 10 min
Text: colorimetric sulfide formation, Michaelis-Menten fit on SlBSAS2a

[11] = substrate: N[C@@H](CS)C(=O)O; type: biochemical, Anthocharis cardamines; conditions: 6 mM KCN, 20 µM pyridoxal-5'-phosphate, Tris-HCl pH 8.5, 31 °C, 10 min; remark: listed apart in the source
Text: colorimetric sulfide formation, Michaelis-Menten fit on AcaBSAS3

[12] = substrate: N[C@@H](CS)C(=O)O; type: biochemical, Spodoptera littoralis; conditions: 6 mM KCN, 20 µM pyridoxal-5'-phosphate, Tris-HCl pH 8.5, 31 °C, 10 min; remark: listed apart in the source
Text: colorimetric sulfide formation, Michaelis-Menten fit on SlBSAS2b

B1: CcBSAS2 (Colias croceus) (protein)
chain: MAKVNGIQNEIKESALDLIGNTPIVALDRLHPGPGRILAKCEFMNPGASIKCRSSLHMINKAIEKGLLKPGQSVLEVTSGNQGCGLAVVCSVMGHPLTVTMSMGNSAQRAIHMEALGAKCVRVPQVEGTYGNVTLADVKAAEKEGLRLAEEIGAYYVNQFNNEDNANSHYCTTGPEIWRQTGHRVDAFVATVGTAGTFTGSSRFLKEKNPNIQCYVVEPEGSQPIRGCAITKPLHLLQGSGYGCVPNLFNFETMDGTLSVTDEEASKYMKLIGEKEGLYVGYTSGANVAAAVKLLNSGTLPEDAWVVTLLNDSGLKYTPVPESLSGNSNNANSD
notes: N-terminal Strep-tag, E. coli BL21(DE3) pLysS; Strep-Tactin purified
Km [1]: 0.75 (±0.06) mM
Vmax [1]: 1.04 µmol/min/mg

B2: AcaBSAS2 (Anthocharis cardamines) (protein)
chain: MTKENGIPNEIKSSALDLIGETPLLALDRLHPGPGRILVKCEFNNPGASIKCRSAMHMIQEARAKGELKPGQPVLEVTSGNQGVGLAIVCAIYGHPLTATMSKGNSVQRAVHMEALGAKCIRVPQVEGTYGNVTINDVKAAEEEGLKIAKETGAYYVNQFNNDDNANSHYLTTGPEIWRQSGHHVDAFIATVGTAGTFAGTSRYLKEKNPDIQCYVVEPEGSQPIRGCEITKPLHLLQGSGYGCIPNLFKFETMDGTLSVTDEEAVRYKNLVGEKEGLYVGYTSGANVAAAVKLLKSGKLPEDAWVVTPLNDSGLKYTPVPDSLT
notes: as for B1
Km [2]: 0.44 (±0.01) mM
Vmax [2]: 1.76 µmol/min/mg

B3: GrBSAS2 (Gonepteryx rhamni) (protein)
chain: MAKVNGIHSEIKESALDLIGNTPIVALDRLHPGPGRILAKCEFMNPGASIKCRSSLHMIQVAREKGLLKPGQPVLEVTSGNQGCGLAVVCSVMGHPLTVTMSKGNSVQRAIHMEALGAKCVRVPQVEGTYGNVTLADVKAAEQEGLRIAEETGAYYVNQFSNDDNANSHYCTTGPEIWRQTGHRVDAFVATVGTAGTFAGSSAYLKEKNPKIQCYVVEPEGSQPIRGCPITKPLHLLQGSGYGCIPNSFKFDTMDGTLSVTDEEATRYKNLIGEKEGLYVGYTSGANIAAAVKLLNSGKLPEDAWVVTLLNDSGLKYTPVPESLT
notes: as for B1
Km [3]: 0.37 (±0.00) mM
Vmax [3]: 0.24 µmol/min/mg

B4: PxBSAS2 (Plutella xylostella) (protein)
chain: MSTIDGVIDGVHNEVKASALELIGNTPLVALDRLHPGPGRLLVKCEFMNPGASLKDRSSLHMIQDARAEGRLAPGAPVVEITSGNQGCGLAVVCAVLGHPLTLTMSAGNSVQRALHMEALGARCVRVPQVEGRYGSVTFADVEVCEKEGHKIVEETGAFLVNQFHNPSNSLSHYKMMGPEIWRQTGGRVDGFVATMGTGGVFTGTSRFLKEQNKDVKTYVVEPAGAEVIKGDAITKPLHLLQGSGYGYVPSLFDRSLLDGTLAVTDEETLEYRRLIGEKEGLFVGYTSAANVAAAARLLRSGQLPPDAWVVTILCDTGLKYC
notes: as for B1
Km [4]: 0.52 (±0.04) mM
Vmax [4]: 3.72 µmol/min/mg

B5: CcBSAS3 (Colias croceus) (protein)
chain: MTSSTNFPTDIKSSALELIGNTPLVALDRLHPGPGRILAKCEFMNPGASIKCRSSLHMIQKARERGDLKPGDPVIEVTSGNQGCGLAVVCAVLGHPLTLTMSKGNSVQRAIHMEALGAKCIRYPQVEGTYGNITYADVSIPIEAAVTLAEETGAYFVQQLCNEDNSAAHYEATGPEIWRQTGHRVDGFVTAVGTSGTFSGVSKFLKEQNPEILCCVVEPAGSEPLKGCPIVKPKHLLQGSSYGIVPNLFKPEFMDESISVTDEETEHYKDLIGKKEGLYVGYTSGANVAAAVKLLKSGKLPKDAWVVTVLCDSGLKYTPVPESLIN
notes: as for B1
Km [5]: 1.50 (±0.08) mM
Vmax [5]: 0.43 µmol/min/mg

B6: AcrBSAS1 (Aporia crataegi) (protein)
chain: MGQTCEKQTDIRSSALELIGNTPLVALDRLYPGPGRLLAKCESMNPGGSIKDRASYHMIKKARLRGELKPGDPVIEATSGNQGCGLAVSCAVLGHPLTLTMSKGNTVQRAIHMEALGATCVRVPQVEGTYGHVTNADLMVVKKEAIVLQQKTGAFFVNQFLNEDNVEAHYISTGPEIWHQTAGRVNAFVTAVGTSGTFMGVSRFLKKQNPKIQCYVVEPEGCEPIKGKPIIKASNTLQGSSYGLVPDLFKYEVMSETITVTDEEAQEYMHLIGKKEGLYVGYTSGANVCAAVKLLKSGKLSKKAWVVTILFDTGLKYTPVPSLM
notes: as for B1
Km [6]: 0.26 (±0.00) mM
Vmax [6]: 14 µmol/min/mg

B7: AcrBSAS2 (Aporia crataegi) (protein)
chain: MAKVNGIKNEIKTSALELIGETPLLALDRLHPGPGRILVKCEFMNPGASIKCRSSLHMIQEARAKGLLKPGQPVLEVTSGNQGCGLAIVCAIYGHPLTVTMSKGNSLQRAIHMEALGAKCVRVPQVEGTYGNVTVNDVNAAEEEGLKIVKETGAYYVNQFNNEDNANSHYLTTGPEIWRQSGHNVDAFVATVGTAGTFAGTSRYLKEKNPNIKCFVVEPEGSQPIKGCPITKPLHLLQGSGYGCIPNLFNFDTMDGTLSVTDEEAVEYKNLIGEKEGLFVGFTSGANVAAAVKLLKSGLIPENSCLVTILNDTGLKYTPVAESLI
notes: as for B1
Km [7]: 0.58 (±0.04) mM
Vmax [7]: 2.09 µmol/min/mg

B8: AcaBSAS1 (Anthocharis cardamines) (protein)
chain: MGQACEKQTDIRASAIELIGNTPLVALDRLHPGPGRILAKCEFMNPGGSIKCRASLHMIQKARLRGTLKPGDPVVEATSGNQGCGLAVACAVLGHPLTLTMSKGNTVQRAIHMEALGAKCIRVPQVEGTYGNVTNADLMAAKDEAISFHEKTGAFFVKQFVNEDNVEAHYTTTGPEIWYQTGNRVDAFVTAVGTSGTFMGVSKYLKKQNPKIRCYVVEPEGCEPIKGKPITKASNTLQGSSYGVIPDLFKFEYMNETITVTDEEAEEYRDLIGSKEGLYVGYTSGANVCAAVKLLKSGKLPKNAWVVTILFDTGLKYTPVPESLM
notes: as for B1
Km [8]: 0.41 (±0.01) mM
Vmax [8]: 23.8 µmol/min/mg

B9: ZfBSAS2 (Zygaena filipendulae) (protein)
chain: MSPPVLQHHDEIKSSALELIGNTPIVALDRLYTGPGRILAKCEFMNPGASIKCRSSLYMIQKALDEKLLKPGEPVLEVTSGNQGCGLAVVCAVLQHPLTLTMSKGNSAQRAVHMAALGAKCIRVPQVEGTYGNVTLADVKAAEAEGLRIVEKTGAYYVNQFNNEANTLAHYETTGPEIWRQTGGRVDAFVATVGTAGTFTGTSKYLKEKNPELKAYVVEPQGSEPIKQLPITKPLHVLQGSGYGCIPNLFNYSTMNDTISVTDEESKHYKKLLGTKEGLYVGYTSGANVAAAVKLLESGTLPDDAWVVTTLNDSGLKYSPTPDEIELSD
notes: as for B1
Km [9]: 0.74 (±0.04) mM
Vmax [9]: 2.99 µmol/min/mg

B10: SlBSAS2a (Spodoptera littoralis) (protein)
chain: MAPIEKDEQPKYLEGDIKASALELIGNTPLVALDRLYTGPGRILAKCEFMNPGASIKCRSSLSMINRAIASGELKPGEPVVEITSGNQGCGLAVVCAVLGHPLTLAMSKGSSAQRALHMEALGAKCVRVDQVEGTYGNVTYADVKAVEEVGMKIVEEQNAYFVNQFHNEANADAHYKSTGPEIWKQTGHHVDAFVATVGTSGTFAGTSRYLKEQNPDIKTYVVEPAGAEAIAGCPITKPLHLLQGSGYGWIPDLFKFEHMDGTLSVTDEEAVKYMKLVGEKEGLYVGYTSGANVAAAVKLLESGLIPEDAWVVTLLNDTGLKYTPVPEELFK
notes: as for B1
Km [10]: 0.60 (±0.01) mM
Vmax [10]: 1.44 µmol/min/mg

B11: AcaBSAS3 (Anthocharis cardamines) (protein)
chain: MSDSNGIPNEIKASALDLIGNTPLVALDRLHPGPGRILAKCEFMNPGGSIKCRSSLHMIQKARERGELKPGGSVVEVTSGNQGCGLAVVCAVLGHDLTVTMSKGNSIQRVIHMEALGAKCIRYPLVQGTYGNVTFADVEEALEAATNMSEESGAFFVKQFCNLENEEAHYVTTGPEIWRQTGHRVDAFVTAVGTSGTFSGVSTFLKEQNPDVKCFVVEPEGSQPLKGCPITKPLHLLQGASYGIIPDLFKPDLMEDSISVTDKEAVHYKDLIGTKEGLFVGYTSGANVAAAVKLLNSGKLPKDAWVVTTLCDTGLKYTPVPESLIE
notes: as for B1
Km [11]: 0.96 (±0.04) mM
Vmax [11]: 1.41 µmol/min/mg

B12: SlBSAS2b (Spodoptera littoralis) (protein)
chain: MAPVEKNLKDEQPKYLKGDIKASALELIGNTPMVALDRLYSGPGRILAKCEFMNPGASIKCRSSLSMINRAIASGELKPGEPVVEITSGNQGCGLAVVCAVLGHPLTLAMSKGNSVQRALHMEALGAKVVRVDQVKGTYGNVTYADVEVVREVCDKLVKDQNAYFVNQFSNEANADAHYESTGPEIWQQTGHHVDAFVAAVGTAGTFMGTSRYLKEQNPNIKAYVVEPAGAEAIAGCEVTKPLHLLQGSGYGLIPDLLKYEFMDGSLSVTDEEAVKYMKLIGEKEGLYVGYTSGANVAAAIKLLESGLVPEDAWVVTVLADTGLKYTPVPEELMK
notes: as for B1
Km [12]: 1.07 (±0.03) mM
Vmax [12]: 11.6 µmol/min/mg
